Reference: IntAct's records for PubMed 31663849

B1: Secretagogin (Homo sapiens), O76038 (parent)
chain: MDSSREPTLGRLDAAGFWQVWQRFDADEKGYIEEKELDAFFLHMLMKLGTDDTVMKANLHKVKQQFMTTQDASKDGRIRMKELAGMFLSEDENFLLLFRRENPLDSSVEFMQIWRKYDADSSGFISAAELRNFLRDLFLHHKKAISEAKLEEYTGTMMKIFDRNKDGRLDLNDLARILALQENFLLQFKMDACSTEERKRDFEKIFAYYDVSKTGALEGPEVDGFVKDMMELVQPSISGVDLDKFREILLRHCDVNKDGKIQKSELALCLGLKINP

Variants of: B1
Conditions: with snp25_mouse Snap25, P60879
snp25_mouse Snap25, P60879, sequence (P60879 whole entry, looked up): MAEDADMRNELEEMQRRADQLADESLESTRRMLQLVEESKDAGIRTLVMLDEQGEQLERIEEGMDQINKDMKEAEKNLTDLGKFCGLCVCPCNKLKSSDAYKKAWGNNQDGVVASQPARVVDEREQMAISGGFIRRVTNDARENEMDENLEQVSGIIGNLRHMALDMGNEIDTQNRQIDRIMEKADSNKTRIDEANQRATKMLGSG

effect of a mutation on the interaction | Variant
with no effect | MDSSREPTLGRLDAAGFWQVWQRFDADEKGYIEEKELDAFFLHMLMKLGTDDTVMKANLHKVKQQFMTTQDASKDGHIRMKELAGMFLSEDENFLLLFRRENPLDSSVEFMQIWRKYDADSSGFISAAELRNFLRDLFLHHKKAISEAKLEEYTGTMMKIFDRNKDGRLDLNDLARILALQENFLLQFKMDACSTEERKRDFEKIFAYYDVSKTGALEGPEVDGFVKDMMELVQPSISGVDLDKFREILLRHCDVNKDGKIQKSELALCLGLKINP [R77H]
